Source: patent US20080299544

B1: NS3/4a PI (protein)
chain: MAPITAYAQQTRGLLGCIITSLTGRDKNQVEGEVQIVSTAAQTFLATCINGVCWTVYHGAGTRTIASPKGPVIQMYTNVDQDLVGWPAPQGSRSLTPCTCGSSDLYLVTRHADVIPVRRRGDSRGSLLSPRPISYLKGSSGGPLLCPAGHAVGIFRAAVCTRGVAKAVDFIPVENLETTMRSPVFTDNSSPPVVPQSFQVAHLHAPTGSGKSTKVPAAYAAQGYKVLVLNPSVAATLGFGAYMSKAHGIDPNIRTGVRTITTGSPITYSTYGKFLADGGCSGGAYDIIICDECHSTDATSILGIGTVLDQAETAGARLVVLATATPPGSVTVPHPNIEEVALSTTGEIPFYGKAIPLEVIKGGRHLIFCHSKKKCDELAAKLVALGINAVAYYRGLDVSVIPPIGDVVVVATDALMTGYTGDFDSVIDCNTCVTQTVDFSLDPTFTIETITLPQDAVSRTQRRGRTGRGKPGIYRFVAPGERPSGMFDSSVLCECYDAGCAWYELTPAETTVRLRAYMNTPGLPVCQDHLEFWEGVFTGLTHIDAHFLSQTKQSGENLPYLVAYQATVCARAQAPPPSWDQMWKCLIRLKPTLHGPTPLLYRLGAVQNEITLTHPVTKYIMTCMSADLEVVTSTWVLVGGVLAALAAYCLSTGCVVIVGRVVLSGKPAIIPDREVLYREFDEMEEC
proteolytic cleavage (SDS-PAGE and anti-hSOD Western blot after 30 minutes at room temperature) (MEFA 7.1): the NS3/4a cleaved MEFA 7.1 (lane 5, FIGS. 14A and 14B)
proteolytic cleavage (SDS-PAGE and anti-hSOD Western blot after 30 minutes at room temperature) (MEFA 7.2): MEFA 7.2, on the other hand, showed no degradation (lane 6, FIGS. 14A and 14B)
